T1: FcγRIIb (human, UniProt P31994 43-217)
T1 construct: extracellular domain; also called FcgRIIb; 2b
T1 sequence (looked up): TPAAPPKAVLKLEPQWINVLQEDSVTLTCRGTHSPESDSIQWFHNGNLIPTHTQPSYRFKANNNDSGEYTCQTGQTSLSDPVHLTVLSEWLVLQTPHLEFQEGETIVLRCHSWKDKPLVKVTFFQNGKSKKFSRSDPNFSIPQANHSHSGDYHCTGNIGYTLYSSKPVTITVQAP

B1: GpH7-A5/GpH7-B3 variant V266_01G/GpL16-k0 (antibody, human IgG1, kappa)
heavy 1: not shown
heavy 2: not shown
light: DIVMTQSPLSLPVTPGEPASISCQASESLVHSNRNTYLHWYLQKPGQSPQLLIYKVSNRFSGVPDRFSGSGSGTDFTLKISRVEAEDVGVYYCSQNTHVPPTFGQGTKVEIERTVAAPSVFIFPPSDEQLKSGTASVVCLLNNFYPREAKVQWKVDNALQSGNSQESVTEQDSKDSTYSLSSTLTLSKADYEKHKVYACEVTHQGLSSPVTKSFNRGEC
notes: mutation in the GpH7-B3 chain only; also called He Ab
B2: GpH7-A5/GpH7-B3 variant S267_06M/GpL16-k0 (antibody, human IgG1, kappa)
heavy 1: not shown
heavy 2: not shown
light: B1 light
notes: as for B1
B3: GpH7-A5/GpH7-B3 variant S267_03V/GpL16-k0 (antibody, human IgG1, kappa)
heavy 1: not shown
heavy 2: not shown
light: B1 light
notes: as for B1
B4: GpH7-A5/GpH7-B3 variant D265_11K/GpL16-k0 (antibody, human IgG1, kappa)
heavy 1: not shown
heavy 2: not shown
light: B1 light
notes: as for B1
B5: GpH7-A5/GpH7-B3 variant S267_07I/GpL16-k0 (antibody, human IgG1, kappa)
heavy 1: not shown
heavy 2: not shown
light: B1 light
notes: as for B1
B6: GpH7-A5/GpH7-B3 variant D265_14T/GpL16-k0 (antibody, human IgG1, kappa)
heavy 1: not shown
heavy 2: not shown
light: B1 light
notes: as for B1
B7: GpH7-A5/GpH7-B3 variant D265_03V/GpL16-k0 (antibody, human IgG1, kappa)
heavy 1: not shown
heavy 2: not shown
light: B1 light
notes: as for B1
B8: GpH7-A5/GpH7-B3 variant D265_15Y/GpL16-k0 (antibody, human IgG1, kappa)
heavy 1: not shown
heavy 2: not shown
light: B1 light
notes: as for B1
B9: GpH7-A5/GpH7-B3 variant S267_05P/GpL16-k0 (antibody, human IgG1, kappa)
heavy 1: not shown
heavy 2: not shown
light: B1 light
notes: as for B1
B10: GpH7-A5/GpH7-B3 variant V266_02A/GpL16-k0 (antibody, human IgG1, kappa)
heavy 1: not shown
heavy 2: not shown
light: B1 light
notes: as for B1
B11: GpH7-A5/GpH7-B3 variant D265_06M/GpL16-k0 (antibody, human IgG1, kappa)
heavy 1: not shown
heavy 2: not shown
light: B1 light
notes: as for B1
B12: GpH7-A5/GpH7-B3 variant D265_10E/GpL16-k0 (antibody, human IgG1, kappa)
heavy 1: not shown
heavy 2: not shown
light: B1 light
notes: as for B1
B13: GpH7-A5/GpH7-B3 variant S267_04F/GpL16-k0 (antibody, human IgG1, kappa)
heavy 1: not shown
heavy 2: not shown
light: B1 light
notes: as for B1
B14: GpH7-A5/GpH7-B3 variant S267_01G/GpL16-k0 (antibody, human IgG1, kappa)
heavy 1: not shown
heavy 2: not shown
light: B1 light
notes: as for B1
B15: GpH7-A5/GpH7-B3 variant D265_16H/GpL16-k0 (antibody, human IgG1, kappa)
heavy 1: not shown
heavy 2: not shown
light: B1 light
notes: as for B1
B16: GpH7-A5/GpH7-B3 variant S267_02A/GpL16-k0 (antibody, human IgG1, kappa)
heavy 1: not shown
heavy 2: not shown
light: B1 light
notes: as for B1
B17: GpH7-A5/GpH7-B3 variant D265_07I/GpL16-k0 (antibody, human IgG1, kappa)
heavy 1: not shown
heavy 2: not shown
light: B1 light
notes: as for B1
B18: GpH7-A5/GpH7-B3 variant D265_18N/GpL16-k0 (antibody, human IgG1, kappa)
heavy 1: not shown
heavy 2: not shown
light: B1 light
notes: as for B1

Target: T2, FcγRIIIa (human, UniProt P08637 17-208)
T2 construct: extracellular domain; also called FcgRIIIa; 3a
Assay: SPR; He/Con_3a divided by He/Con_2b (FcγRIIIa against FcγRIIb)

T2 sequence (P08637 17-208): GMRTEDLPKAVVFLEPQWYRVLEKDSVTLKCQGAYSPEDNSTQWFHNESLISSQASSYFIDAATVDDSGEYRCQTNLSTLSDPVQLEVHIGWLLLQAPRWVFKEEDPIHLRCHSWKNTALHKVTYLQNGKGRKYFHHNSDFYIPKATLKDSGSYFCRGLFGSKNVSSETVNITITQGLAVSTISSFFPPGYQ

He_3a/2b (IIIa/IIb)	Binder
0.47 ratio	B1
0.31 ratio	B2
0.16 ratio	B3
0.17 ratio	B4
0.13 ratio	B5
0.27 ratio	B6
0.19 ratio	B7
-2.86 ratio	B8
0.5 ratio	B9
0.71 ratio	B10
0.26 ratio	B11
0.53 ratio	B12
0.23 ratio	B13
0.51 ratio	B14
0.35 ratio	B15
0.62 ratio	B16
-0.61 ratio	B17
0.74 ratio	B18

Target: T2, FcγRIIIa
Assay: SPR (Biacore), relative binding

He/Con_3a	Binder
24 % of GpH7-A5/GpH7-B3/GpL16-k0	B1
66 % of GpH7-A5/GpH7-B3/GpL16-k0	B2
30.8 % of GpH7-A5/GpH7-B3/GpL16-k0	B3
2.5 % of GpH7-A5/GpH7-B3/GpL16-k0	B4
25.2 % of GpH7-A5/GpH7-B3/GpL16-k0	B5
4.3 % of GpH7-A5/GpH7-B3/GpL16-k0	B6
0.6 % of GpH7-A5/GpH7-B3/GpL16-k0	B7
-1.7 % of GpH7-A5/GpH7-B3/GpL16-k0	B8
15.7 % of GpH7-A5/GpH7-B3/GpL16-k0	B9
57.4 % of GpH7-A5/GpH7-B3/GpL16-k0	B10
2.6 % of GpH7-A5/GpH7-B3/GpL16-k0	B11
20.1 % of GpH7-A5/GpH7-B3/GpL16-k0	B12
11 % of GpH7-A5/GpH7-B3/GpL16-k0	B13
53.8 % of GpH7-A5/GpH7-B3/GpL16-k0	B14
13.6 % of GpH7-A5/GpH7-B3/GpL16-k0	B15
150 % of GpH7-A5/GpH7-B3/GpL16-k0	B16
-0.8 % of GpH7-A5/GpH7-B3/GpL16-k0	B17
4.6 % of GpH7-A5/GpH7-B3/GpL16-k0	B18

Target: T1, FcγRIIb
Assay: SPR (Biacore), relative binding

He/Con_2b	Binder
51.5 % of GpH7-A5/GpH7-B3/GpL16-k0	B1
210 % of GpH7-A5/GpH7-B3/GpL16-k0	B2
192 % of GpH7-A5/GpH7-B3/GpL16-k0	B3
14.9 % of GpH7-A5/GpH7-B3/GpL16-k0	B4
192 % of GpH7-A5/GpH7-B3/GpL16-k0	B5
16 % of GpH7-A5/GpH7-B3/GpL16-k0	B6
3.2 % of GpH7-A5/GpH7-B3/GpL16-k0	B7
0.6 % of GpH7-A5/GpH7-B3/GpL16-k0	B8
31.5 % of GpH7-A5/GpH7-B3/GpL16-k0	B9
81 % of GpH7-A5/GpH7-B3/GpL16-k0	B10
10 % of GpH7-A5/GpH7-B3/GpL16-k0	B11
38.2 % of GpH7-A5/GpH7-B3/GpL16-k0	B12
48 % of GpH7-A5/GpH7-B3/GpL16-k0	B13
105 % of GpH7-A5/GpH7-B3/GpL16-k0	B14
38.3 % of GpH7-A5/GpH7-B3/GpL16-k0	B15
243 % of GpH7-A5/GpH7-B3/GpL16-k0	B16
1.3 % of GpH7-A5/GpH7-B3/GpL16-k0	B17
6.1 % of GpH7-A5/GpH7-B3/GpL16-k0	B18

From patent US20150344570A1 (published 2015)
